From patent publication US20210261648A1 (published 2021)
Positions count from the first letter of the chain named.

T1: FcγRIIa type H extracellular domain with C-terminal His tag (human, UniProt P12318 34-217)
T1 construct: extracellular domain; also called FcgRIIaH; FcγRIIa H
T1 sequence (looked up): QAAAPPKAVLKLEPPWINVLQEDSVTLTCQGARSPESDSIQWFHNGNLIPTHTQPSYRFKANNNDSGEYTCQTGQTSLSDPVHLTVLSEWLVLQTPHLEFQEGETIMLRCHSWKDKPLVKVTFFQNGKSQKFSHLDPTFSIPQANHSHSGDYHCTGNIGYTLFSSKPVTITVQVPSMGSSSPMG

T2: FcγRIIb extracellular domain with C-terminal His tag (human, UniProt P31994 43-217)
T2 construct: extracellular domain; also called FcgRIIb
T2 sequence (looked up): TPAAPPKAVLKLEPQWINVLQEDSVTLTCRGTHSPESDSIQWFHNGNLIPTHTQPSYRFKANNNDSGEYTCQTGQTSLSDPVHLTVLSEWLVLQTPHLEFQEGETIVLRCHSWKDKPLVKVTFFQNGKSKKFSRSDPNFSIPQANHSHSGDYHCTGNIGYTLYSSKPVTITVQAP

B1: IL6R-BP084/IL6R-L (antibody, human IgG1, kappa)
heavy: QVQLQESGPGLVKPSETLSLTCAVSGHSISHDHAWSWVRQPPGEGLEWIGFISYSGITNYNPSLQGRVTISRDNSKNTLYLQMNSLRAEDTAVYYCARSLARTTAMDYWGEGTLVTVSSASTKGPSVFPLAPSSKSTSGGTAALGCLVKDYFPEPVTVSWNSGALTSGVHTFPAVLQSSGLYSLSSVVTVPSSSLGTQTYICNVNHKPSNTKVDKKVEPKSCDKTHTCPPCPAPELLGGDSVFLFPPKPKDTLMISRTPEVTCVVVDVSHEDPEVKFNWYVDGVEVHNAKTKPREEQYNSTYRVVSVLTVLHQDWLNGKEYKCKMSNKALPKPIEKTISKAKGQPREPQVYTLPPSRDELTKNQVSLTCLVKGFYPSDIAVEWESNGQPENNYKTTPPVLDSDGSFFLYSKLTVDKSRWQQGNVFSCSVMHEALHNHYTQESLSLSP
light: not shown
B2: IL6R-BP195/IL6R-L (antibody, human IgG1, kappa)
heavy: B1 heavy with E235D, L236Y, G239D, H270D, P273G, Y298D, M325V, K328A
light: not shown
B3: IL6R-BP183/IL6R-L (antibody, human IgG1, kappa)
heavy: B1 heavy with E235D, L236Y, P273G, M325V, K328A
light: not shown
B4: IL6R-BP180/IL6R-L (antibody, human IgG1, kappa)
heavy: B1 heavy with G239D, P273G, M325V
light: not shown
B5: IL6R-BP187/IL6R-L (antibody, human IgG1, kappa)
heavy: B1 heavy with L236Y, P273G, M325V, K328A
light: not shown
B6: IL6R-BP150/IL6R-L (antibody, human IgG1, kappa)
heavy: B1 heavy with L236Y, G239D, M325V, K328A, K332R
light: not shown
B7: IL6R-BP189/IL6R-L (antibody, human IgG1, kappa)
heavy: B1 heavy with G239D, H270D, P273G, M325V, K328A
light: not shown
B8: IL6R-BP149/IL6R-L (antibody, human IgG1, kappa)
heavy: B1 heavy with E235D, L236Y, G239D, Y298D, M325V, K328A
light: not shown
B9: IL6R-BP212/IL6R-L (antibody, human IgG1, kappa)
heavy: B1 heavy with E235D, H270D, P273G, Y298D, M325V, K332R
light: not shown
B10: IL6R-BP179/IL6R-L (antibody, human IgG1, kappa)
heavy: B1 heavy with G239D, P273G, M325V, K328A
light: not shown
B11: IL6R-BP200/IL6R-L (antibody, human IgG1, kappa)
heavy: B1 heavy with E235D, L236Y, G239D, P273G, M325V, K328D, K332R
light: not shown
B12: IL6R-BP178/IL6R-L (antibody, human IgG1, kappa)
heavy: B1 heavy with E235D, G239D, P273G, M325V
light: not shown
B13: IL6R-BP151/IL6R-L (antibody, human IgG1, kappa)
heavy: B1 heavy with E235D, L236Y, G239D, M325V, K328A, K332R
light: not shown
B14: IL6R-BP152/IL6R-L (antibody, human IgG1, kappa)
heavy: B1 heavy with E235D, L236Y, G239D, Y298D, M325V, K328A, K332R
light: not shown
B15: IL6R-BP089/IL6R-L (antibody, human IgG1, kappa)
heavy: B1 heavy with L236Y, M325V, K328A
light: not shown
B16: IL6R-BP190/IL6R-L (antibody, human IgG1, kappa)
heavy: B1 heavy with G239D, H270D, P273G, M325V
light: not shown
B17: IL6R-BP088/IL6R-L (antibody, human IgG1, kappa)
heavy: B1 heavy with G239D, M325V, K328A
light: not shown
B18: IL6R-BP202/IL6R-L (antibody, human IgG1, kappa)
heavy: B1 heavy with G239D, P273G, M325V, K328A, K332R
light: not shown
B19: IL6R-BP087/IL6R-L (antibody, human IgG1, kappa)
heavy: B1 heavy with L236Y, M325V
light: not shown
B20: IL6R-BP147/IL6R-L (antibody, human IgG1, kappa)
heavy: B1 heavy with L236Y, G239D, M325V, K328A
light: not shown
B21: IL6R-BP197/IL6R-L (antibody, human IgG1, kappa)
heavy: B1 heavy with E235D, L236Y, G239D, H270D, P273G, Y298D, M325V, K328D
light: not shown
B22: IL6R-BP177/IL6R-L (antibody, human IgG1, kappa)
heavy: B1 heavy with E235D, L236Y, G239D, P273G, M325V, K328D
light: not shown
B23: IL6R-BP146/IL6R-L (antibody, human IgG1, kappa)
heavy: B1 heavy with L236Y, G239D, M325V, K328A, K332A
light: not shown
B24: IL6R-BP210/IL6R-L (antibody, human IgG1, kappa)
heavy: B1 heavy with G239D, H270D, P273G, M325V, K332R
light: not shown
B25: IL6R-BP201/IL6R-L (antibody, human IgG1, kappa)
heavy: B1 heavy with E235D, G239D, P273G, M325V, K332R
light: not shown
B26: IL6R-BP131/IL6R-L (antibody, human IgG1, kappa)
heavy: B1 heavy with E235D, G239D, M325V
light: not shown
B27: IL6R-BP198/IL6R-L (antibody, human IgG1, kappa)
heavy: B1 heavy with E235D, L236Y, H270D, P273G, M325V, K328A
light: not shown
B28: IL6R-BP130/IL6R-L (antibody, human IgG1, kappa)
heavy: B1 heavy with E235D
light: not shown
B29: IL6R-BP148/IL6R-L (antibody, human IgG1, kappa)
heavy: B1 heavy with E235D, L236Y, G239D, M325V, K328A
light: not shown
B30: IL6R-BP145/IL6R-L (antibody, human IgG1, kappa)
heavy: B1 heavy with L236Y, G239D, M325V, K332A
light: not shown
B31: IL6R-BP196/IL6R-L (antibody, human IgG1, kappa)
heavy: B1 heavy with L236Y, H270D, P273G, M325V, K328A
light: not shown
B32: IL6R-BP194/IL6R-L (antibody, human IgG1, kappa)
heavy: B1 heavy with E235D, L236Y, G239D, H270D, P273G, M325V, K328A
light: not shown
B33: IL6R-BP186/IL6R-L (antibody, human IgG1, kappa)
heavy: B1 heavy with E235D, L236Y, G239D, P273G, Y298D, M325V, K328A
light: not shown

Legend:
Assay in all cases: SPR, captured antibody, FcgR analyte
[1] = biological target: T1, FcγRIIa type H extracellular domain …
Description: (§1) Relative binding activities were calculated for the results of analyzing interactions with the respective FcγRs according to the following method.

[2] = biological target: T2, FcγRIIb extracellular domain with …
Description: as §1

[3] = biological target: T3, FcγRIa extracellular domain with C-terminal His tag (human, UniProt P12314 16-292)
T3 construct: also called FcgRIa
T3 sequence (P12314 16-292): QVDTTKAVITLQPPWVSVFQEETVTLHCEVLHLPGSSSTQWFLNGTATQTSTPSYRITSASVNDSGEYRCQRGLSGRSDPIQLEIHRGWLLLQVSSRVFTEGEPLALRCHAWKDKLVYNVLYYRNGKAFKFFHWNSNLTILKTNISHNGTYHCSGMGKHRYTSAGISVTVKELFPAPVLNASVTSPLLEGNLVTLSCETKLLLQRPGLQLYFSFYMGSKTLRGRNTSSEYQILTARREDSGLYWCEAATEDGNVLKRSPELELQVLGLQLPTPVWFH
Description: as §1

Binder | relative binding activity [1] | relative binding activity [2] | relative binding activity [3]
B1 | 162 relative (IL6R-BF648/IL6R-L = 100) | 141 relative (IL6R-BF648/IL6R-L = 100) | 109 relative (IL6R-BF648/IL6R-L = 100)
B2 | 344 relative (IL6R-BF648/IL6R-L = 100) | – | 68 relative (IL6R-BF648/IL6R-L = 100)
B3 | 191 relative (IL6R-BF648/IL6R-L = 100) | 164 relative (IL6R-BF648/IL6R-L = 100) | 83 relative (IL6R-BF648/IL6R-L = 100)
B4 | 203 relative (IL6R-BF648/IL6R-L = 100) | 179 relative (IL6R-BF648/IL6R-L = 100) | 29 relative (IL6R-BF648/IL6R-L = 100)
B5 | 205 relative (IL6R-BF648/IL6R-L = 100) | 157 relative (IL6R-BF648/IL6R-L = 100) | 68 relative (IL6R-BF648/IL6R-L = 100)
B6 | 770 relative (IL6R-BF648/IL6R-L = 100) | 183 relative (IL6R-BF648/IL6R-L = 100) | 30 relative (IL6R-BF648/IL6R-L = 100)
B7 | 183 relative (IL6R-BF648/IL6R-L = 100) | 177 relative (IL6R-BF648/IL6R-L = 100) | 56 relative (IL6R-BF648/IL6R-L = 100)
B8 | 401 relative (IL6R-BF648/IL6R-L = 100) | 173 relative (IL6R-BF648/IL6R-L = 100) | 29 relative (IL6R-BF648/IL6R-L = 100)
B9 | 135 relative (IL6R-BF648/IL6R-L = 100) | 173 relative (IL6R-BF648/IL6R-L = 100) | 117 relative (IL6R-BF648/IL6R-L = 100)
B10 | 226 relative (IL6R-BF648/IL6R-L = 100) | 177 relative (IL6R-BF648/IL6R-L = 100) | 39 relative (IL6R-BF648/IL6R-L = 100)
B11 | 517 relative (IL6R-BF648/IL6R-L = 100) | 188 relative (IL6R-BF648/IL6R-L = 100) | 60 relative (IL6R-BF648/IL6R-L = 100)
B12 | 259 relative (IL6R-BF648/IL6R-L = 100) | 179 relative (IL6R-BF648/IL6R-L = 100) | –
B13 | 621 relative (IL6R-BF648/IL6R-L = 100) | – | 39 relative (IL6R-BF648/IL6R-L = 100)
B14 | 548 relative (IL6R-BF648/IL6R-L = 100) | 178 relative (IL6R-BF648/IL6R-L = 100) | 34 relative (IL6R-BF648/IL6R-L = 100)
B15 | 186 relative (IL6R-BF648/IL6R-L = 100) | 147 relative (IL6R-BF648/IL6R-L = 100) | 43 relative (IL6R-BF648/IL6R-L = 100)
B16 | 224 relative (IL6R-BF648/IL6R-L = 100) | – | 50 relative (IL6R-BF648/IL6R-L = 100)
B17 | 166 relative (IL6R-BF648/IL6R-L = 100) | 161 relative (IL6R-BF648/IL6R-L = 100) | 25 relative (IL6R-BF648/IL6R-L = 100)

Binder | relative binding activity [1] | relative binding activity [2] | relative binding activity [3]
B18 | 285 relative (IL6R-BF648/IL6R-L = 100) | 185 relative (IL6R-BF648/IL6R-L = 100) | 43 relative (IL6R-BF648/IL6R-L = 100)
B19 | 179 relative (IL6R-BF648/IL6R-L = 100) | 137 relative (IL6R-BF648/IL6R-L = 100) | 33 relative (IL6R-BF648/IL6R-L = 100)
B20 | 582 relative (IL6R-BF648/IL6R-L = 100) | 177 relative (IL6R-BF648/IL6R-L = 100) | 24 relative (IL6R-BF648/IL6R-L = 100)
B21 | 294 relative (IL6R-BF648/IL6R-L = 100) | 179 relative (IL6R-BF648/IL6R-L = 100) | 71 relative (IL6R-BF648/IL6R-L = 100)
B22 | 409 relative (IL6R-BF648/IL6R-L = 100) | 177 relative (IL6R-BF648/IL6R-L = 100) | 57 relative (IL6R-BF648/IL6R-L = 100)
B23 | 203 relative (IL6R-BF648/IL6R-L = 100) | 156 relative (IL6R-BF648/IL6R-L = 100) | –
B24 | 279 relative (IL6R-BF648/IL6R-L = 100) | 187 relative (IL6R-BF648/IL6R-L = 100) | 57 relative (IL6R-BF648/IL6R-L = 100)
B25 | 359 relative (IL6R-BF648/IL6R-L = 100) | 186 relative (IL6R-BF648/IL6R-L = 100) | 57 relative (IL6R-BF648/IL6R-L = 100)
B26 | 253 relative (IL6R-BF648/IL6R-L = 100) | – | 33 relative (IL6R-BF648/IL6R-L = 100)
B27 | 188 relative (IL6R-BF648/IL6R-L = 100) | 164 relative (IL6R-BF648/IL6R-L = 100) | 104 relative (IL6R-BF648/IL6R-L = 100)
B28 | 224 relative (IL6R-BF648/IL6R-L = 100) | – | 104 relative (IL6R-BF648/IL6R-L = 100)
B29 | 462 relative (IL6R-BF648/IL6R-L = 100) | 176 relative (IL6R-BF648/IL6R-L = 100) | 33 relative (IL6R-BF648/IL6R-L = 100)
B30 | 224 relative (IL6R-BF648/IL6R-L = 100) | 152 relative (IL6R-BF648/IL6R-L = 100) | 41 relative (IL6R-BF648/IL6R-L = 100)
B31 | 195 relative (IL6R-BF648/IL6R-L = 100) | 157 relative (IL6R-BF648/IL6R-L = 100) | 89 relative (IL6R-BF648/IL6R-L = 100)
B32 | 395 relative (IL6R-BF648/IL6R-L = 100) | 178 relative (IL6R-BF648/IL6R-L = 100) | 69 relative (IL6R-BF648/IL6R-L = 100)
B33 | 368 relative (IL6R-BF648/IL6R-L = 100) | 175 relative (IL6R-BF648/IL6R-L = 100) | 43 relative (IL6R-BF648/IL6R-L = 100)
